Here are results for four substances from paper doi:10.1101/2025.10.16.682781.

What all share (assay): ITC
On the technique in general: In ITC the heat of successive injections is recorded.

Assay [1] addresses FusB-CTD R241A (Pectobacterium carotovorum LMG2410).
Assay [2] addresses FusB-CTD R241K (Pectobacterium carotovorum LMG2410).
For assay [3], the target named is FusB-CTD D322N (Pectobacterium carotovorum LMG2410).
Assay [4] deals with FusB-CTD wild type (C-terminal domain of the TonB homologue FusB of Pectobacterium carotovorum LMG2410) (Pectobacterium carotovorum LMG2410).

As usually defined, the Kd is the constant that tells how readily two partners part at equilibrium. High values mean lower affinity, low ones higher affinity. In the case of “FusANTR-GFP wild type (GFP fusion construct containing the N-terminal region, residues 21-66, of FusA) (domain or fragment)”, the results for the equilibrium dissociation constant (Kd) in assay [1], in assay [2] and in assay [3] were 38.8 mM, 25.3 mM and 0.0094 mM, respectively.
SpFer F64Y (natural protein): in assay [4], the Kd was 30.7 mM.
For “SpFer E93A/E94A (from UniProt P00221 51-147) (natural protein)”, the Kd in assay [4] stood at 31.3 mM.
On to FusANTR-GFP D53A (domain or fragment), for which the Kd in assay [3] was determined as 31.8 mM; in assay [4] it was 31.6 mM.
